The target in data set [1] is T1, thrombin (UniProt P00734;P00734 328-363;364-622). The data set can be described thus: PAGE and FAM/BHQ1 fluorescence (release of strand D); Mg2+; indirect read-out; complexes annealed in 1x TAE/Mg2+ buffer, DNA complex about 0.5-0.6 uM; thrombin trigger 2 h at room temperature (cell experiments); pH and Mg2+ concentration n.
In data set [2] the target is T1, thrombin. The experiment in a line: PAGE (release of DGFP); Mg2+; indirect read-out; complexes annealed in 1x TAE/Mg2+ buffer, DNA complex about 0.5-0.6 uM; thrombin trigger 2 h at room temperature (cell experiments); pH and Mg2+ concentration n.
Data set [3] deals with T1, thrombin. The experiment in a line: PAGE and fluorescence (release of strand D); Mg2+; indirect read-out; complexes annealed in 1x TAE/Mg2+ buffer, DNA complex about 0.5-0.6 uM; thrombin trigger 2 h at room temperature (cell experiments); pH and Mg2+ concentration n.

B1: complex CDAB (15Apt and 29Apt thrombin aptamers on B and A) (structured_DNA)
DNA 1: AATGGTCCTATGATTCCGTTTTTTTTTTTTGTCACTAGCTACTAGGTAGCTAGTGACGTTATTTTTTTTATGAGAGAGAGTGTGTCC
DNA 2: TAACGTCACTAGCTACCTTTTTTTTTTTTTTTTTTTTTTTTTTTTTTTTTTTTTTTT
DNA 3: GGACACACTCTCTCTCATTTTAGTCCGTGGTAGGGCAGGTTGGGGTGACT
DNA 4: GGTTGGTGTGGTTGGTTTCGGAATCATAGGACCATT
In the case of B1, in the data set with thrombin [1], the binding result is on record as “binds”.

B2: complex-G C3DGFPAB (T1 3 nt, T2 12 nt) (structured_DNA)
DNA 1: AATGGTCCTATGATTCCGTTTTTTTTTTTTTGCACGCTGCCGTTACGGCAGCGTGCAGCTCTTTTTTTTATGAGAGAGAGTGTGTCC
DNA 2: GAGCTGCACGCTGCCGTCTTTTTTTTTTTTTTTTTTTTTTTTTTTTTTTTTTTTTTTTT
DNA 3: GGACACACTCTCTCTCATTTTAGTCCGTGGTAGGGCAGGTTGGGGTGACT
DNA 4: GGTTGGTGTGGTTGGTTTCGGAATCATAGGACCATT
With B2, the binding result with thrombin [2] was “binds”.

B3: single-trigger-site complex with E-29apt (structured_DNA)
DNA 1: AATGGTCCTATGATTCCGTTTTTTTTTTTTGTCACTAGCTACTAGGTAGCTAGTGACGTTATTTTTTTTATGAGAGAGAGTGTGTCC
DNA 2: TAACGTCACTAGCTACCTTTTTTTTTTTTTTTTTTTTTTTTTTTTTTTTTTTTTTTT
DNA 3: GGACACACTCTCTCTCATTTTAGTCCGTGGTAGGGCAGGTTGGGGTGACTTTTCGGAATCATAGGACCATT
As for B3, the binding result with thrombin [3] is given as “binds”.

The record behind these values is PMC10425332, “Programming conformational cooperativity to regulate allosteric protein-oligonucleotide signal transduction”.
